The record followed here is patent US20170145104A1.

Assay [1] has as its target human GITR, membrane bound (on activated human T cells and on 3A9-hGITR cells) (human) (UniProt Q9Y5U5). In words: FACS, PHA-activated human CD4+ and CD8+ T cells, PE anti-HA tag. Background: A flow cytometer gives signals particle by particle.
Assay [2] shares this target. The assay can be described thus: FACS: recombinant hGITR-L trimer titrated on PHA-activated human T cells, CD8 gate, PE anti-HA tag; direct binding curve; the sheet's table heads the row 'IC50', the text calls it EC50; unit from the axis.
For assay [3] the target is unchanged. In words: FACS competition on activated human CD4+ T cells: GITRL pre-bound and titrated, then 28F3.hIgG1 (m11) at a fixed 0.5 ug/mL, detected with anti-human IgG Fc-PE; partial block; unit from the axis.
The target is the same in assay [4]. The assay can be described thus: FACS competition on PHA-activated human T cells, GITR-L pre-bound, competitor 28F3-hIgG1 at 0.5 ug/ml; inhibition partial.
Assay [5] shares this target. In words: FACS: recombinant hGITR-L trimer titrated on PHA-activated human T cells, CD4 gate, PE anti-HA tag; direct binding curve; the sheet's table heads the row 'IC50', the text calls it EC50; unit from the axis.
For assay [6] the target is unchanged. The assay can be described thus: FACS on activated T cells, GMFI (PE); EC50 table under the plot; unit from the axis; fit of a flat control curve, see non_binding.

Chain of human GITR, membrane bound (on activated human T cells and on 3A9-hGITR cells) (human) (Q9Y5U5 26-241 limits assumed, form in doubt): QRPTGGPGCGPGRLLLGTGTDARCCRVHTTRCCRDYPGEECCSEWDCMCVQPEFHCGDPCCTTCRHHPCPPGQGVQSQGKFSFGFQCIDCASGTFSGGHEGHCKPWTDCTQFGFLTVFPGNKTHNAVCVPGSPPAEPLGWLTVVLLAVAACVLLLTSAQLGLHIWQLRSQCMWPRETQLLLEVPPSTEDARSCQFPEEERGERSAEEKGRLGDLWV

For orientation: EC50 means the midpoint of the concentration-response curve. As usually defined, the IC50 is the concentration that inhibits the measured activity by half. A high value points to lower potency. Turning to “recombinant human GITR ligand trimer (R&D Systems 6987-GL)”, the concentration giving a half-maximal response (EC50) in assay [1] is 0.016 µg/mL; in assay [2] it was 0.0163 µg/mL; in assay [5] it was 0.016 µg/mL. The results for the IC50 in assay [3] and in assay [4] were 0.00244 µg/mL and 0.0024 µg/mL, respectively.

In the case of unrelated hIgG2 (antibody), the EC50 in assay [6] is 6.72 nM.

Turning to unrelated hIgG1 (antibody), the half-maximal effective concentration (EC50) in assay [6] came out at 132 nM.
